Changes are numbered by the printed parent chain. Numbers in names are those of the source.
B1: ecAGP (α-D-glucose 1-phosphate phosphatase) (Escherichia coli K-12) (protein)
chain: QTVPEGYQLQQVLMMSRHNLRAPLANNGSVLEQSTPNKWPEWDVPGGQLTTKGGVLEVYMGHYMREWLAEQGMVKSGECPPPYTVYAYANSLQRTVATAQFFITGAFPGCDIPVHHQEKMGTMDPTFNPVITDDSAAFSEQAVAAMEKELSKLQLTDSYQLLEKIVNYKDSPACKEKQQCSLVDGKNTFSAKYQQEPGVSGPLKVGNSLVDAFTLQYYEGFPMDQVAWGEIKSDQQWKVLSKLKNGYQDSLFTSPEVARNVAKPLVSYIDKALVTDRTSAPKITVLVGHDSNIASLLTALDFKPYQLHDQNERTPIGGKIVFQRWHDSKANRDLMKIEYVYQSAEQLRNADALTLQAPAQRVTLELSGCPIDADGFCPMDKFDSVLNEAVK
notes: purified enzyme; homodimer; expression construct and tags only in supplement
B2: YidA (alternative name: HAD13) (Escherichia coli K-12) (protein)
chain: MAIKLIAIDMDGTLLLPDHTISPAVKNAIAAARARGVNVVLTTGRPYAGVHNYLKELHMEQPGDYCITYNGALVQKAADGSTVAQTALSYDDYRFLEKLSREVGSHFHALDRTTLYTANRDISYYTVHESFVATIPLVFCEAEKMDPNTQFLKVMMIDEPAILDQAIARIPQEVKEKYTVLKSAPYFLEILDKRVNKGTGVKSLADVLGIKPEEIMAIGDQENDIAMIEYAGVGVAMDNAIPSVKEVANFVTKSNLEDGVAFAIEKYVLN
notes: construct only in supplement
B3: ecAGP (α-D-glucose 1-phosphate phosphatase) (Escherichia coli K-12; H40D) (protein)
chain: B1 chain with H18D
notes: as for B1
B4: ecAGP (α-D-glucose 1-phosphate phosphatase) (Escherichia coli K-12; D312A) (protein)
chain: B1 chain with D290A
notes: as for B1

What was measured:
[1] = substrate: O=P(O)(O)O[C@H]1O[C@H](CO)[C@@H](O)[C@H](O)[C@H]1O; assay: phosphomonoester hydrolysis kinetics; type: biochemical, Escherichia coli
[2] = substrate: O=P(O)(O)O[C@H]1O[C@H](CO)[C@@H](O)[C@H](O)[C@H]1O; assay: purified protein, by the assay type; parameters: Michaelis-Menten kinetics of substrate hydrolysis, initial rates of free phosphate release, pH 7.0, 37 °C
Experimental: 8 S1.10 Structure determination and refinement The structure of H18D was determined by molecular replacement with PHASER9 using PDB ID: 1NT4 (H18A) as a search model. Model building was performed with COOT10 and refine-ment was carried out with phenix.refine. 11 The final structures were evaluated using MolPro-bity. 12 The number of Ramachandran outliers was below 0.2%. Figures of the structural models were prepared using PyMol 1.3. 13 S1.11 Phosphatase kinetics The rate constant kcat and the Michaelis constant KM were determined by measuring the initial rate of phosphate hydrolysis catalyzed by wild-type ecAGP (2 nM), H18D or H18D-2 (110 µM), D290A (2 nM - 5 µM, depending on the substrate used) or H18D/D290A (110 µM) in 50 mM HEPES buffer (pH 7.0). Reactions were incubated at 37°C on a Thermomixer comfort (Eppendorf, Hamburg, Germany) with agitation at 650 rpm. The reactions were started by ad-dition of enzyme. Glc1P, Glc6P, and the bis(cyclohexylammonium) salts of [compound left out], 2-nitrophenyl phosphate, 3-nitrophenyl phosphate, [compound left out] phosphate, 4-cyanophenyl S13 phosphate and 3-chlorophenyl phosphate were used as substrates in concentrations ranging from 0.01 mM to 10 mM. Incubation times were adjusted to ensure that the overall substrate hydrolysis was below 10 %. Samples withdrawn were quenched by heating (99°C, 5 min) and the free phosphate concentration was measured in supernatants of centrifuged (16000 × g, 15 min, 4°C) samples. All reactions were performed in triplicate. Kinetic parameters were obtained from non-linear least squares fits (SigmaPlot, Systat, Erkrath, Germany) of initial rates of phosphate release to the Michaelis–Menten equation. V is the initial rate, Vmax is the maximum initial rate, KM is the Michaelis constant and [S] is the initial substrate concentration (equation 1). The kcat was obtained from the relationship, kcat = Vmax/[E], where [E] is the molar concentration of active sites. [E] was obtained from the protein concentration using a molecular mass of the ecAGP subunit of 46674 Da. S10 (Merck Millipore) to a total protein concentration of 13 mg/mL in 10 mM NaAc (pH 4.5). Aliquots of 70 µL were stored at -70°C until use. Purity of the protein preparations was verified by SDS-PAGE. The ecAGP activity was assayed as described below in the section phosphatase kinetics. One unit of ecAGP activity is the amount of enzyme releasing 1 μmol of inorganic phosphate from Glc1P per minute under the conditions applied. S1.5 YidA The YidA from E. coli was used. A N-terminally His-tagged enzyme preparation was applied. […]

Protein	Km [2] [µM]	kcat [2] [s⁻¹]	also measured
B1	90 ± 20	35 ± 1.7	kcat ([1]; range printed jointly for wild-type and H18D, individual values in supplement): 35 ± 2 s^–1
B2	210 ± 30	20 ± 1.3	
B3			kcat ([1]; range printed jointly for wild-type and H18D, phospho-enzyme intermediate on Asp18): 2.0 × 10^–4 s^–1
B4			Km ([1]; general acid-base removed): 1060 ± 120 µM; kcat ([1]; general acid-base removed): 0.014 ± 0.01 s⁻¹

— publication PMC8938923, “Essential Functional Interplay of the Catalytic Groups in Acid Phosphatase” (ACS Catalysis, 2022)
